The text below walks through data of patent US7442375B2, “Compositions of beta-defensin inducing agents” (Case Western Reserve University, priority 2002, dated 2008).

What all share (format): cell-based
One experiment has as its system HIV-1 R5 B-93US142. The conditions noted are these: virus preincubated 1 h with hBD in 10 mM PB; GHOST cells 48 h; GFP fluorescence. How it is done:
(§1) HIV-1 strains (X4 HXB2 and R5 93US142) were incubated in 10 mM PB with increasing concentrations of hBD and used to infect GHOST X4/R5 cells. (a) Qualitative determination of HIV-1 infection, measured by GFP fluorescence, in the absence (−C) and presence (+C) of virus preincubated in 10 mM PB. (b) Anti-HIV-1 activity of hBD in GHOST X4/R5 cells using fluorescence microscopy. (c) Anti-HIV-1 activity of hBD measured by RT activity in cell-free culture supernatant, relative to the positive control (i.e., HIV-1 infection in the absence of hBD). (d) Antiretroviral activity of hBD against CXCR4- and CCR5-tropic HIV-1 strains in three different environments: DMEM+10% FBS (complete medium); DMEM alone (Medium no FBS); 10 mM PB. Viruses were incubated with 20 μg/ml of each hBD for 1 h in each condition and used to infect CEM X4/R5 cells as described. Results are representative of three independent experiments.
(§2) HIV-1 isolates were incubated with increasing concentrations (5-40 μg/ml) of hBD-1, -2, and -3, in three different conditions: high salt complete medium (RPMI-1640 or DMEM supplemented with 10% fetal bovine serum, FBS); high salt medium in the absence of FBS; or low salt medium (10 mM phosphate buffer), 37° C. for 1 h. Respective mixtures were used to infect PBMC, Ghost X4/R5 or CEM X4/R5 cells at an MOI of […]. After 2 h incubation at 37° C., 5% CO2, cells were washed three times with phosphate-buffered saline (PBS) and cultured in complete medium for 48 h. In the case of Ghost X4/R5 cells, these were washed, resuspended in PBS, and analyzed by fluorescence microscopy for GFP expression as described [Morner et al.]. Cell-free supernatants from PBMC, Ghost X4/R5 and CEM X4/R5 cultures were used to monitor infectivity by the reverse transcriptase (RT) assay [Quinones-Mateu et al.]. The 50% inhibitory concentration (IC50) of each hBD was determined using X4 or R5 HIV-1 isolates. Viruses (0.01 MOI) were incubated with increasing concentrations of hBD-1, -2, and 3 (up to 40 µg/ml) in low salt medium for 1 h and used to infect CEM X4/R5 cells. After 2 h incubation at 37° C., 5% CO2, cells were washed twice with PBS and cultured in complete medium. Supernatant samples were removed on day 5 post-infection and virus production was measured using […] the RT assay [Id.]. Cytotoxicity of hBD was quantified by determining the number of viable cells using a tetrazolium-based colorimetric (MTT) assay [Pauwels et al.].
(§3) Since the antibacterial activity of beta-defensins is sensitive to high salt and serum concentrations, the anti-HIV-1 activity of hBD was initially evaluated in a low salt, serum free environment, mimicking oral mucosal conditions [Mandel et al.]. Two HIV-1 isolates (X4 B-HXB2 and R5 B-93US142) were preincubated for 1 h with increasing concentrations of recombinant hBD-1, -2, and -3, in 10 mM phosphate buffer (PB). GHOST CCR5/CXCR4 cells were then exposed to the mixtures for 48 h in complete medium. […] When CXCR4- and CCR5-tropic HIV-1 strains were preincubated with beta-defensins in high salt medium (DMEM) supplemented with 10% FBS, no antiviral effect was detected (FIG. 4d). However, preincubation in DMEM without FBS inhibited replication of X4, but not R5, HIV-1 isolates (FIG. 4d). Under low salt conditions (i.e., 10 mM PB, no FBS) the 50% inhibitory concentration for both agents against X4 and R5 viruses ranged from 9 to 19 μg/ml and 20 to 40 μg/ml, respectively.

The next experiment deals with HIV-1 X4 B-HXB2. The conditions noted are these: virus preincubated 1 h with hBD in 10 mM PB; GHOST cells 48 h; GFP fluorescence. How it is done: as §1, §2, §3
Another experiment concerns the target CCR5 (Homo sapiens, UniProt P51681). In words: Flow cytometric analysis of co-receptor surface expression on unstimulated PBMC. Details: endogenous in cells; host or cells: unstimulated peripheral blood mononuclear cells (PBMC). The conditions noted are these: 30 μg/ml, 3 h, high salt medium without FBS. How it is done:
(§4) Unstimulated PBMC were treated for 3 hrs with hBD-1, -2, or -3 (30 μg/ml) in DMEM (high salt) in the absence of FBS. The CXCR4 natural ligand SDF-1AE (2 μg/ml) and the CCR5 antagonist PSC-RANTES (100 nM) were used as positive controls. CXCR4 and CCR5 surface expression was calculated using known ratios of QuantiBRITE-PE beads (Becton Dickenson) by flow cytometry. Results are the means of seven experiments±SD.
(§5) Unstimulated PBMC were treated with 30 μg/ml hBD-1, -2, or -3 in high salt medium (RPMI-1640) in the absence of FBS, 3 h. The CXCR4 natural ligand SDF-1α (R&D Systems, Minneapolis, Minn., USA) and the CCR5 antagonist PSC-RANTES were used as controls. Cells were incubated with peridinin chlorophyll protein-conjugated anti-human CD4 antibody, and either phycoerythrin (PE)-conjugated anti-human CXCR4 antibody, PE-conjugated anti-human CCR5 antibody, or PE-conjugated mouse immunoglobulin G2a (IgG2a), isotype standard (PharmMingen, San Diego, Calif., USA) [Salkowitz et al.]. Fluorescence intensity was reported as receptor density by quantitative flow cytometry (FACSCaliber; Becton Dickenson, San Jose, Calif., USA) [Iyer et al.]. Data were analyzed using CELLQuest software (Becton Dickenson).
(§6) Surface expression of CXCR4 was decreased by 51%±18% and 52%±20% (SD) respectively after incubation with 30 μg/ml of hBD-2 or hBD-3 (FIG. 5).

The target of another experiment is CXCR4 (Homo sapiens, UniProt P61073). Described as above. The conditions noted are these: 30 μg/ml, 3 h, high salt medium without FBS. Also on record: endogenous in cells; host or cells: unstimulated peripheral blood mononuclear cells (PBMC). How it is done:
as §4, §5, §6

Sequence of CXCR4 (P61073 whole entry): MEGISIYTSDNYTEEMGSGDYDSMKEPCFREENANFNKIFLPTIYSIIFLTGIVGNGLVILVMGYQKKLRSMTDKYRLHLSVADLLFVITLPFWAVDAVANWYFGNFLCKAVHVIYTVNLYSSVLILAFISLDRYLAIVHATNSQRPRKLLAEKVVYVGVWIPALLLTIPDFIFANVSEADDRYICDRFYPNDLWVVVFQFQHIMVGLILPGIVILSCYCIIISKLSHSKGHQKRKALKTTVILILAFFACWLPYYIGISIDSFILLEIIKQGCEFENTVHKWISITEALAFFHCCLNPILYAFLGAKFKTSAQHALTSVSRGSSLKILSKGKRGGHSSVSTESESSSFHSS
Sequence of CCR5 (P51681 whole entry): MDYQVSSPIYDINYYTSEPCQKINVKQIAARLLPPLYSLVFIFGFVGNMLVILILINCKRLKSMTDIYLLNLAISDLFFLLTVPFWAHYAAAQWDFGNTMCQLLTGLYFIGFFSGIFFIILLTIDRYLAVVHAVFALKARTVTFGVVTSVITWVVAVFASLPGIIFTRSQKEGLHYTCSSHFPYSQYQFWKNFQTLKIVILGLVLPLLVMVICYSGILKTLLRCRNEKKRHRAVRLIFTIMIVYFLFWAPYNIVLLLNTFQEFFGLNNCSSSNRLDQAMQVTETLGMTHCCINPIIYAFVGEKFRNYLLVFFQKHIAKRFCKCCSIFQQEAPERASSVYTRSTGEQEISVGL

B1: hBD-3: Recombinant human β-defensin 3 produced using an hBD-3-His tag fusion construct cloned into pET-30c; exemplary sequence SEQ ID NO:15 (protein, listed as Homo sapiens)
chain: MRIHYLLFALLFLFLVPVPGHGGIINTLQKYYCRVRGGRCAVLSCLPKEEQIGKCSTRGRKCCRRKK
modifications: not fully specified (C-terminus); ends and bridges not checked
As for B1, the anti-HIV-1 activity result with HIV-1 R5 B-93US142 and in the experiment on HIV-1 X4 B-HXB2 was “showed anti-HIV-1 activity” throughout. Further, the “effect on CCR5 expression” value with CCR5 is reported as “not altered”. Moreover, the “decrease of surface expression of CXCR4 (±SD)” value with CXCR4 is reported as 52%±20%.
